Test results as given in article PMC10150958, “Combination of anti-C1qA08 and anti-mCRP a.a.35-47 antibodies is associated with renal prognosis of patients with lupus nephritis” (Frontiers in Immunology, 2023).

B1: peptide A08 (peptide)
peptide: GRPGRRGRPGLKG
notes: peptide from the collagen like region (CLR) of the C1q-A chain; Biotinylated and nonbiotinylated peptides were synthesized; also called C1qA08; source: synthetic peptide (GenScript, >95% purity)
B2: peptide 35-47 of mCRP (peptide)
peptide: VCLHFYTELSSTR
notes: peptide 35-47 derived from mCRP (C-reactive protein); Biotinylated and nonbiotinylated peptides were synthesized; also called a.a.35-47; mCRP a.a.35-47; source: synthetic peptide (GenScript, >95% purity)
B3: monomeric CRP (mCRP) (natural protein, UniProt P02741 19-224, looked up)
chain: QTDMSRKAFVFPKESDTSYVSLKAPLTKPLKAFTVCLHFYTELSSTRGYSIFSYATKRQDNEILIFWSKDIGYSFTVGGSEILFEVPEVTVAPVHICTSWESASGIVEFWVDGKPRVRKSLKKGYTVGAEASIILGQEQDSFGGNFEGSQSLVGDIGNVNMWDFVLSPDEINTIYLGGPFSPNVLNWRALKYEVQGEVFTKPQLWP
notes: C-reactive protein, monomeric (dissociated, denatured) form; Same protein in all assays: purified mCRP in solution or coated on plates; for SPR with the C1q peptides pentameric CRP was coupled to the chip and turned into mCRP by urea/EDTA, because mCRP precipitated in acetate buffer; also called monomeric C-reactive protein; urea-denatured mCRP; source: urea-denatured mCRP on the microplate; on …
B4: peptide B78 (peptide)
peptide: PGKVGPKGPMGPK
notes: peptide from the collagen like region (CLR) of the C1q-B chain; Biotinylated and nonbiotinylated peptides were synthesized; source: synthetic peptide (GenScript, >95% purity)
B5: peptide 199-206 of mCRP (peptide)
peptide: FTKPQLWP
notes: peptide 199-206 derived from mCRP (C-reactive protein); Biotinylated and nonbiotinylated peptides were synthesized; also called a.a.199-206; source: synthetic peptide (GenScript, >95% purity)

Assays:
monomeric CRP (mCRP) = target: B3; test: SPR; Biacore T200; CRP immobilised on a CM5 chip and denatured to mCRP by 200 s of 8 M urea and 5 mM EDTA; peptides A08, B78, A08-C injected at 30 μl/min in PBS with 0.05% P-20; conditions: both partners purified
[1] = target: T1, human complement component C1q (human, UniProt P02745 23-245; P02746 28-253; P02747 29-245); test: SPR; Biacore T200; C1q coupled to a CM5 chip; mCRP or peptides a.a.35-47, a.a.199-206 injected at 30 μl/min in PBS with 0.05% P-20; steady-state curve for a.a.35-47; conditions: both partners purified
T1 construct: complement C1q, A chain, human; complement C1q, B chain, human; complement C1q, C chain, human; also called human C1q; copies: 6 + 6 + 6
T1 sequence (P02745 23-245, chain 1 of 3): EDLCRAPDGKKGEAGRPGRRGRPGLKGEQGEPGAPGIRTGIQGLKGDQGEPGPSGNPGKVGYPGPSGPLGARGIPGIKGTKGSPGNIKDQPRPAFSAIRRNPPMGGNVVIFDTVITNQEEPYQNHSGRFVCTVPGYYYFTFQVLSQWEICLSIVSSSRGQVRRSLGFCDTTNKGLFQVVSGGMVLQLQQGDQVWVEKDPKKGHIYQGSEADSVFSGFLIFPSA
T1 sequence (P02746 28-253, chain 2 of 3): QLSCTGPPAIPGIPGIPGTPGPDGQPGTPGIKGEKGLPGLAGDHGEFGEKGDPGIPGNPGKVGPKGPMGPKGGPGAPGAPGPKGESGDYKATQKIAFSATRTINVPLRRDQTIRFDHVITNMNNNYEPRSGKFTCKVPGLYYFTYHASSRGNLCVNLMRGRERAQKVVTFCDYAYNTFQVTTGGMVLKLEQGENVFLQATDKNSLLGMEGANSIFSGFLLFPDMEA
T1 sequence (P02747 29-245, chain 3 of 3): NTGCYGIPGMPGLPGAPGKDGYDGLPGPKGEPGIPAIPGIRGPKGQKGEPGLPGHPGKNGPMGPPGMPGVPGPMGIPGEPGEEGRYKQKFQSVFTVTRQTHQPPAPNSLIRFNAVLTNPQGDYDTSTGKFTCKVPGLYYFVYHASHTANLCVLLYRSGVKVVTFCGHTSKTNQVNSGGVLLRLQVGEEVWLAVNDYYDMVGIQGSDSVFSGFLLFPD

Kd (monomeric CRP (mCRP)) | Kd [1] | Binder
4.7 µM | – | B1
– | 2940 nM | B2
– | 0.0737 nM | B3
3500 µM | – | B4
– | 890000 nM | B5
